Data published in publication PMC9974510, “Structure of metallochaperone in complex with the cobalamin-binding domain of its target mutase provides insight into cofactor delivery” (Proceedings of the National Academy of Sciences of the …, 2023).

B2: MeaB from Methylobacterium extorquens (natural protein, UniProt Q8RPA0 1-329, looked up)
chain: MSATLPDMDTLRERLLAGDRAALARAITLAESRRADHRAAVRDLIDAVLPQTGRAIRVGITGVPGVGKSTTIDALGSLLTAAGHKVAVLAVDPSSTRTGGSILGDKTRMARLAIDRNAFIRPSPSSGTLGGVAAKTRETMLLCEAAGFDVILVETVGVGQSETAVADLTDFFLVLMLPGAGDELQGIKKGILELADMIAVNKADDGDGERRASAAASEYRAALRILTPPSATWTPPVVTISGLHGKGLDSLWSRIEGHRSKLTATGEIAGKRREQDVKWMWALVHERLHQRLVGSAEVRQATAEAERAVAGGEHSPAAGADAIATLIGL
notes: MeaB, G-protein chaperone of methylmalonyl-CoA mutase, Methylobacterium extorquens, WP_003597297.1; 329 residues (Met1 to Leu329 of 329 named in the model of chain B); Synthetic gene in pET28a at NdeI and XhoI; also called G-protein metallochaperone MeaB; source: E. coli Bl21 T7 Express, purified (Ni-NTA, Superdex 200 SEC)

Key:
[1] = target: B2; test: cell-based or functional assay
[2] = target: the molecule itself; test: SEC; analytical Superdex200 Increase 10/300 GL; each protein alone (50 µM MeaB); apparent molecular weights against gel filtration standards; 50 mM HEPES pH 7.5, 500 mM NaCl
[3] = target: B2; test: SEC; analytical Superdex200 Increase 10/300 GL; 50 µM MeaB and 100 µM MeMCMcbl preincubated with 500 µM GMPPCP and 1 mM MgCl2; 50 mM HEPES pH 7.5, 500 mM NaCl; peaks identified by SDS-PAGE; details: both partners purified

B1: Cbl-binding domain of the alpha subunit of Methylobacterium extorquens methylmalonyl-CoA mutase (domain or fragment, UniProt C5AV67 545-712, looked up)
chain: RAQIRSISGVYKREVGGMSPVVEKVRGLVEAFEENDGRRPRILVAKMGQDGHDRGQKVIASAFADLGFDVDIGPLFATPDEAARQAVENDVHIVGVSSLAAGHLTLVPELKAALKQEGRDDVMIVVGGVIPPGDYDALYAAGASAIFPPGTVIAEAAVNLLGELNTRL
notes: alpha subunit has 712 residues; Two constructs were made (N-terminal HisTag, of low solubility; C-terminal HisTag in pET28a at NcoI and XhoI); The crystal holds the C-terminal HisTag form (residues 713 to 714 of the tag modelled in chain C); the same form is surmised for the SEC and GTPase experiments; also called MeMCMcbl; MCMcbl; source: E. coli Bl21 T7 Express, purified (Ni-NTA, Superdex75 …)
GTPase activity of MeaB (2 µM) with MeMCMcbl (4 µM), 500 µM GTP: inorganic phosphate produced, against MeaB alone [1]: 25 fold | stoichiometry N [2]: 2 | stoichiometry N [3]: 1 MeMCMcbl dimer per MeaB dimer

B2
stoichiometry N [2]: 2
